Drawing on article PMC4011913, this text covers Kd, koff and kon for one substance.

What all share (test): SPR
The target in assay [1] is humanized anti-gD IgG1 variant T307Q/N434A (human).
Assay [2] deals with humanized IgG1 anti-herpes simplex virus glycoprotein D antibody, wild type (human).
Assay [3] concerns the target humanized anti-gD IgG1 variant H310Q (human).

Regarding “Soluble murine FcRn (neonatal Fc receptor) (from UniProt Q61559 22-297)”, in assay [1], the Kd (in general, the concentration at which binding is half-saturated) worked out at 108 nM; the dissociation rate constant (koff) – broadly, the first-order rate constant of dissociation – was found to be 0.0021 s⁻¹; the on-rate constant (kon) (as a rule, the rate constant with which the complex forms) was found to be 19100 M⁻¹ s⁻¹. In assay [2], the Kd stood at 601 nM, the off-rate (koff) is 0.0037 s⁻¹ and the kon turned out to be 6160 M⁻¹ s⁻¹. In assay [3], this substance displayed a dissociation constant Kd of 93 µM, a koff of 0.115 s⁻¹ and a kon of 1230 M⁻¹ s⁻¹.
